Where two headings read alike, the source gives them in different places.
Legend:
[1] = biological target: T1, CD137-hisFc fusion protein (Sino Biological Cat 10041-H03H) (human, UniProt Q07011 24-186); experiment: BLI Octet, Fab
T1 construct: Bought; also called recombinant human CD137 (fused with human Fc and His tag); not shown: His tag and human Fc

[2] = biological target: T1, CD137-hisFc fusion protein (Sino …); experiment: BLI Octet, Fab; remark: listed apart in the source

Binder	Kd [1]	koff [1]	kon [1]	Kd [2]	koff [2]	kon [2]
Fab 5302 (Fab, V domains shown, Fab from E. coli; also called VH13/VL13) VH: EVQLVESGGGLVQPGGSLRLSCAASGFSLSTGGVGVAWIRQAPGKGLEWVSSISGYGSTTYYADSVKGRFTISRDNSKNTLYLQLNSLRAEDTAVYYCAREGSDAVLGDWFGYWGQGTLVTVSS VL: DIQLTQSPSSLSASVGDRVTITCQASQDITTYLAWYQQKPGKAPKLLIYDASNRATGIPSRFSGSGSGTDFTLTISSLQPEDFATYYCQQGYYLWTFGQGTKVEIKR	1.21 nM	0.000426 s⁻¹	354000 M⁻¹ s⁻¹	1.2 nM	0.00043 s⁻¹	350000 M⁻¹ s⁻¹
Fab 5413 (Fab, V domains shown, Fab from E. coli; also called VH38/VL38) VH: EVQLVESGGGLVQPGGSLRLSCAASGFSLSTGGVAVGWIRQAPGKGLEWLALIDWDGDKSYSTSLKSRLTISRDNSKNTLYLQLNSLRAEDTAVYYCAREGSTAVVGDWFDYWGQGTLVTVSS VL: DIQLTQSPSSLSASVGDRVTITCRASQGISRYLAWYQQKPGKAPKLLIYDASNRATGIPSRFSGSGSGTDFTLTISSLQPEDFATYYCQQGYSLWTFGQGTKVEIKR	0.993 nM	0.000551 s⁻¹	555000 M⁻¹ s⁻¹	0.99 nM	0.00055 s⁻¹	560000 M⁻¹ s⁻¹
Fab 5314 (Fab, V domains shown, Fab from E. coli; also called VH16/VL16) VH: EVQLVESGGGLVQPGGSLRLSCAASGFSLSTGGVAVGWIRQAPGKGLEWLALIDWAGDKSYSTSLKSRLTISRDNSKNTLYLQLNSLRAEDTAVYYCARGGSDTVLGDWFAYWGQGTLVTVSS VL: DIQLTQSPSSLSASVGDRVTITCRASQGVSPYLAWYQQKPGKAPKLLIYDASNRATGIPSRFSGSGSGTDFTLTISSLQPEDFATYYCQQGYSTWTFGQGTKVEIKR	8.39 nM	0.00177 s⁻¹	210000 M⁻¹ s⁻¹	8.4 nM	0.0018 s⁻¹	210000 M⁻¹ s⁻¹
Fab 5318 (Fab, V domains shown, Fab from E. coli; also called VH18/VL18) VH: EVQLVESGGGLVQPGGSLRLSCAASGFSLSTSGVAVGWIRQAPGKGLEWLALIDWDDDKYYSTSLKSRLTISRDNSKNTLYLQLNSLRAEDTAVYYCAREGSTAVAGDWFAYWGQGTLVTVSS VL: DIQLTQSPSSLSASVGDRVTITCQASQDIRTFLAWYQQKPGKAPKLLIYDASNRATGIPSRFSGSGSGTDFTLTISSLQPEDFATYYCQQGYSTWTFGQGTKVEIKR	19 nM	0.00269 s⁻¹	141000 M⁻¹ s⁻¹	19 nM	0.0027 s⁻¹	140000 M⁻¹ s⁻¹
Fab 5342 (Fab, V domains shown, Fab from E. coli; also called VH21/VL21) VH: EVQLVESGGGLVQPGGSLRLSCAASGFSLSTGGVAVGWIRQAPGKGLEWLALIDWAGDKSYSTSLKSRLTISRDNSKNTLYLQLNSLRAEDTAVYYCAREGEDAVTGDWFAYWGQGTLVTVSS VL: DIQLTQSPSSLSASVGDRVTITCQASQDIRTYLAWYQQKPGKAPKLLIYDASNRATGIPSRFSGSGSGTDFTLTISSLQPEDFATYYCQQGYSIWTFGQGTKVEIKR	38.9 nM	0.00612 s⁻¹	157000 M⁻¹ s⁻¹	39 nM	0.0061 s⁻¹	160000 M⁻¹ s⁻¹
Fab 5370 (Fab, V domains shown, Fab from E. coli; also called VH32/VL32) VH: EVQLVESGGGLVQPGGSLRLSCAASGFSLSTSGVAVAWIRQAPGKGLEWLALIDWDDDKRYSTSLKSRLTISRDNSKNTLYLQLNSLRAEDTAVYYCAREGSTTVVGDWFDYWGQGTLVTVSS VL: DIQLTQSPSSLSASVGDRVTITCRASQGIGTYLAWYQQKPGKAPKLLIYDASNRATGIPSRFSGSGSGTDFTLTISSLQPEDFATYYCQQGYSLWTFGQGTKVEIKR	1.91 nM	0.001 s⁻¹	524000 M⁻¹ s⁻¹	1.9 nM	0.001 s⁻¹	520000 M⁻¹ s⁻¹
Fab 5359 (Fab, V domains shown, Fab from E. coli; also called VH27/VL27) VH: EVQLVESGGGLVQPGGSLRLSCAASGFSLSTSGVGVGWIRQAPGKGLEWLALIDWADDKYYSPSLKSRLTISRDNSKNTLYLQLNSLRAEDTAVYYCARGGSDAVLGDWFAYWGQGTLVTVSS VL: DIQLTQSPSSLSASVGDRVTITCRASQGIGSYLAWYQQKPGKAPKLLIYDASNLETGVPSRFSGSGSGTDFTLTISSLQPEDFATYYCQQGYSIWTFGQGTKVEIKR	0.71 nM	0.00033 s⁻¹	464000 M⁻¹ s⁻¹	0.71 nM	0.00033 s⁻¹	460000 M⁻¹ s⁻¹
Fab 5310 (Fab, V domains shown, Fab from E. coli; also called VH15/VL15) VH: EVQLVESGGGLVQPGGSLRLSCAASGFSLSTSGVGVGWIRQAPGKGLEWLALIDWDDDKYYSPSLKSRLTISRDNSKNTLYLQLNSLRAEDTAVYYCARGGSDTVLGDWFAYWGQGTLVTVSS VL: DIQLTQSPSSLSASVGDRVTITCRASQSVSPYLAWYQQKPGKAPKLLIYDASSLESGVPSRFSGSGSGTDFTLTISSLQPEDFATYYCQQGYSLWTFGQGTKVEIKR	5.72 nM	0.00465 s⁻¹	813000 M⁻¹ s⁻¹	5.7 nM	0.0047 s⁻¹	810000 M⁻¹ s⁻¹
Fab 5300 (Fab, V domains shown, Fab from E. coli; also called VH12/VL12) VH: EVQLVESGGGLVQPGGSLRLSCAASGYTFSNYWIHWVRQAPGKGLEWVSYISGDGDTTYYADSVKGRFTISRDNSKNTLYLQLNSLRAEDTAVYYCAREGSTTVAGDWFAYWGQGTLVTVSS VL: DIQLTQSPSSLSASVGDRVTITCRASQGIGSFLGWYQQKPGKAPKLLIYDASSLESGVPSRFSGSGSGTDFTLTISSLQPEDFATYYCQQYYSLVTFGQGTKVEIKR	15.3 nM	0.0091 s⁻¹	596000 M⁻¹ s⁻¹	15 nM	0.0091 s⁻¹	600000 M⁻¹ s⁻¹

The remaining binders from weak to strong by Kd [1], led by results:

Kd [1]	koff [1]	kon [1]	Kd [2]	koff [2]	kon [2]	Binder
96.7 nM	0.0545 s⁻¹	564000 M⁻¹ s⁻¹	97 nM	0.055 s⁻¹	560000 M⁻¹ s⁻¹	Fab 4217 (Fab, V domains shown, Fab from E. coli; also called VH10/VL10) VH: EVQLVESGGGLVQPGGSLRLSCAASGYSISSGYYWDWIRQAPGKGLEWVSSISGDGDTTYYADSVKGRFTISRDNSKNTLYLQLNSLRAEDTAVYYCAREYYGYGYALDYWGQGTLVTVSS VL: DIQLTQSPSSLSASVGDRVTITCRASQGISSYLAWYQQKPGKAPKLLIYDASSLESGVPSRFSGSGSGTDFTLTISSLQPEDFATYYCQQYYSTPLTFGQGTKVEIKR
23.6 nM	0.0075 s⁻¹	318000 M⁻¹ s⁻¹	24 nM	0.0075 s⁻¹	320000 M⁻¹ s⁻¹	Fab 5408 (Fab, V domains shown, Fab from E. coli; also called VH36/VL36) VH: EVQLVESGGGLVQPGGSLRLSCAASGYSITSGYHWSWIRQAPGKGLEWVSSISGYGDTTYYADSVKGRFTISRDNSKNTLYLQLNSLRAEDTAVYYCAREGSDTVLGDWFAYWGQGTLVTVSS VL: DIQLTQSPSSLSASVGDRVTITCQASQDIRTYLAWYQQKPGKAPKLLIYDASNLETGVPSRFSGSGSGTDFTLTISSLQPEDFATYYCQQGYSIWTFGQGTKVEIKR
19.5 nM	0.000937 s⁻¹	48000 M⁻¹ s⁻¹	20 nM	0.00094 s⁻¹	48000 M⁻¹ s⁻¹	Fab 4074 (Fab, V domains shown, Fab from E. coli) VH: EVQLVESGGGLVQPGGSLRLSCAASGFSLSTGGVGVSWIRQAPGKGLEWVSSISGSGGTTYYADSVKGRFTISRDNSKNTLYLQLNSLRAEDTAVYYCARDDLYSWYFDVWGQGTLVTVSS VL: DIQLTQSPSSLSASVGDRVTITCRASQGIGSSLAWYQQKPGKAPKLLIYAASSLQSGVPSRFSGSGSGTDFTLTISSLQPEDFATYYCQQGYYTWTFGQGTKVEIKR
13.7 nM	0.0076 s⁻¹	555000 M⁻¹ s⁻¹	14 nM	0.0076 s⁻¹	560000 M⁻¹ s⁻¹	Fab 5299 (Fab, V domains shown, Fab from E. coli; also called VH11/VL11) VH: EVQLVESGGGLVQPGGSLRLSCAASGYSISSGHYWGWIRQAPGKGLEWLALIDWYGDKYYSTSLKSRLTISRDNSKNTLYLQLNSLRAEDTAVYYCARSDYYGSHFDYWGQGTLVTVSS VL: DIQLTQSPSSLSASVGDRVTITCRASESVDFDGFSFLAWYQQKPGKAPKLLIYDASNLETGVPSRFSGSGSGTDFTLTISSLQPEDFATYYCQQYDTLPRTFGQGTKVEIKR
6.95 nM	0.00107 s⁻¹	154000 M⁻¹ s⁻¹	7 nM	0.0011 s⁻¹	150000 M⁻¹ s⁻¹	Fab 4072 (Fab, V domains shown, Fab from E. coli; also called VH2/VL2) VH: EVQLVESGGGLVQPGGSLRLSCAASGFSLSTSGVAVSWIRQAPGKGLEWIGIINPNFGDTNYAQKFQGRVTISRDNSKNTLYLQLNSLRAEDTAVYYCARDEYYGGSYYFDYWGQGTLVTVSS VL: DIQLTQSPSSLSASVGDRVTITCRASQDVRTAVAWYQQKPGKAPKLLIYDASNLETGVPSRFSGSGSGTDFTLTISSLQPEDFATYYCQQSYDWPPTFGQGTKVEIKR
5.12 nM	0.00509 s⁻¹	995000 M⁻¹ s⁻¹	5.1 nM	0.0051 s⁻¹	1e+06 M⁻¹ s⁻¹	Fab 5303 (Fab, V domains shown, Fab from E. coli; also called VH14/VL14) VH: EVQLVESGGGLVQPGGSLRLSCAASGFSLSTSGVAVGWIRQAPGKGLEWLALIDWADDKYYSPSLKSRLTISRDNSKNTLYLQLNSLRAEDTAVYYCAREGSDAVLGDWFAYWGQGTLVTVSS VL: DIQLTQSPSSLSASVGDRVTITCRASQDISTFLAWYQQKPGKAPKLLIYDASSLESGVPSRFSGSGSGTDFTLTISSLQPEDFATYYCQQAYSIWTFGQGTKVEIKR
3.3 nM	0.0013 s⁻¹	395000 M⁻¹ s⁻¹	3.3 nM	0.0013 s⁻¹	400000 M⁻¹ s⁻¹	Fab 5404 (Fab, V domains shown, Fab from E. coli; also called VH34/VL34) VH: EVQLVESGGGLVQPGGSLRLSCAASGYSISSGYHWAWIRQAPGKGLEWIGEIYHSGSTYYSPSLKSRVTISRDNSKNTLYLQLNSLRAEDTAVYYCARSPYYYGVFDYWGQGTLVTVSS VL: DIQLTQSPSSLSASVGDRVTITCSASSRVGSVYWYQQKPGKAPKLLIYDASNLETGVPSRFSGSGSGTDFTLTISSLQPEDFATYYCQQYTHDPVTFGQGTKVEIKR
2.56 nM	0.00179 s⁻¹	701000 M⁻¹ s⁻¹	2.6 nM	0.0018 s⁻¹	700000 M⁻¹ s⁻¹	Fab 5365 (Fab, V domains shown, Fab from E. coli; also called VH30/VL30) VH: EVQLVESGGGLVQPGGSLRLSCAASGFSLSTGGVGVGWIRQAPGKGLEWLALIDWADDKYYSPSLKSRLTISRDNSKNTLYLQLNSLRAEDTAVYYCARGGSDTVIGDWFAYWGQGTLVTVSS VL: DIQLTQSPSSLSASVGDRVTITCRASQSIGSYLAWYQQKPGKAPKLLIYDASNLETGVPSRFSGSGSGTDFTLTISSLQPEDFATYYCQQGYYLWTFGQGTKVEIKR

Reference: patent US20190055314A1 (ADAGENE, published 2019)
